In publication PMC5479578 (Biochemistry, 2017):
Square brackets hold non-standard residues; d marks the D form. Ends that are not written are not given here. Peptide text beside a SMILES is read from it. * marks the point of attachment. FITC = O=C1OC2(c3ccc(O)cc3Oc3cc(O)ccc32)c2ccc(NC(=S)*)cc21; Biotin = O=C1N[C@H]2[C@H](CS[C@H]2CCCCC(=O)*)N1; pT = C[C@@H](OP(=O)(O)O)[C@H](N)C(=O)O

Columns and labels:
[1] = target: T1, PDZ2 of NHERF1 (Homo sapiens, UniProt O14745); test: Surface plasmon resonance, NHERF1 PDZ2; assay type: binding
T1 sequence (O14745 133-300): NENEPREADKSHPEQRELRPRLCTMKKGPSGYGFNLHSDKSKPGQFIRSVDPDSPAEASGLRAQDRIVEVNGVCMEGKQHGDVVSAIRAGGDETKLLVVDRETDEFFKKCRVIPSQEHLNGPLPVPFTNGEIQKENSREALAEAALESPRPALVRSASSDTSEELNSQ

[2] = target: NHERF1 PDZ1 domain (1-140) (human) (UniProt O14745); test: ITC
[3] = target: NHERF1 PDZ2 domain (133-300) (human) (UniProt O14745); test: ITC
[4] = target: T2, PDZ1 of NHERF1 (Homo sapiens, UniProt O14745); test: Isothermal titration calorimetry, NHERF1 PDZ1; assay type: binding
T2 sequence (O14745 1-140): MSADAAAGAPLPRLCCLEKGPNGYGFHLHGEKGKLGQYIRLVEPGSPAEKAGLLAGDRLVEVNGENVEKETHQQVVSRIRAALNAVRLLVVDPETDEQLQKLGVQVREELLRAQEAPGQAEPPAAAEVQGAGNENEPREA

[5] = target: T1, PDZ2 of NHERF1; test: Isothermal titration calorimetry, NHERF1 PDZ2; assay type: binding
[6] = tested on: PTHR; test: Mass spectrometry of PTHR phosphorylation in cell lysates; assay type: cell-based; details: PTH(1–34) treatment; MS-MS of cell lysates
[7] = target: T3, NHERF1 PDZ1 domain (1-140) (human, UniProt O14745 1-140); test: fluorescence polarisation
T3 sequence (looked up): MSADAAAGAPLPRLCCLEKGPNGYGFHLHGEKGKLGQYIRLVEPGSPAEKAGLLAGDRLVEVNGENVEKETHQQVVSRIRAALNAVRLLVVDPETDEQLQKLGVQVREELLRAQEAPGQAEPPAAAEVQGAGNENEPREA

[8] = target: T3, NHERF1 PDZ1 domain (1-140); test: SPR
[9] = target: T4, NHERF1 PDZ2 domain (133-300) (human, UniProt O14745 133-300); test: SPR
T4 sequence (looked up): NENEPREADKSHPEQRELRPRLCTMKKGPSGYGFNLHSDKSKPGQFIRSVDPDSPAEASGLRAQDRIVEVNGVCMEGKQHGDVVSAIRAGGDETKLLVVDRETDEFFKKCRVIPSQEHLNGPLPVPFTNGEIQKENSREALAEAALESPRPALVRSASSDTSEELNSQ

[10] = target: T3, NHERF1 PDZ1 domain (1-140); test: SPR; remark: listed apart in the source
[11] = target: T4, NHERF1 PDZ2 domain (133-300); test: SPR; remark: listed apart in the source
[12] = target: T4, NHERF1 PDZ2 domain (133-300); test: fluorescence polarisation
[13] = target: T3, NHERF1 PDZ1 domain (1-140); test: fluorescence polarisation; remark: listed apart in the source
[14] = target: T4, NHERF1 PDZ2 domain (133-300); test: fluorescence polarisation; remark: listed apart in the source
[15] = target: T3, NHERF1 PDZ1 domain (1-140); test: fluorescence polarisation; remark: listed apart in the source
[16] = target: T4, NHERF1 PDZ2 domain (133-300); test: fluorescence polarisation; remark: listed apart in the source
[17] = target: T3, NHERF1 PDZ1 domain (1-140); test: fluorescence polarisation; remark: listed apart in the source
[18] = target: T4, NHERF1 PDZ2 domain (133-300); test: fluorescence polarisation; remark: listed apart in the source
[19] = target: T3, NHERF1 PDZ1 domain (1-140); test: fluorescence polarisation; remark: listed apart in the source
[20] = target: T4, NHERF1 PDZ2 domain (133-300); test: fluorescence polarisation; remark: listed apart in the source
[21] = target: T3, NHERF1 PDZ1 domain (1-140); test: ITC
[22] = target: T4, NHERF1 PDZ2 domain (133-300); test: ITC

## CSCC[C@H](NC(=O)[C@@H](NC(=O)[C@@H](NC(=O)[C@H](CCC(=O)O)NC(=O)[C@H](Cc1c[nH]c2ccccc12)NC(=O)[C@H](CCC(=O)O)NC(=O)[C@H](CCC(=O)O)NC(=O)[C@H](CCC(N)=O)NC(=O)[C@H](CC(C)C)NC(=O)[C@H](CC(C)C)NC(=O)[C@H](C)NC(=O)[C@@H]1CCCN1C(=O)[C@@H]1CCCN1C(=O)[C@H](CCCNC(=N)N)NC(=O)[C@H](CCC(=O)O)NC(=O)[C@@H]1CCCN1C(=O)CNC(=O)[C@H](CO)NC(=O)[C@H](C)NC(=O)[C@H](CCC(=O)O)NC(=O)[C@H](CCC(=O)O)NC(=O)[C@H](CC(=O)O)NC(=O)CCCC[C@@H]1SC[C@@H]2NC(=O)N[C@@H]21)[C@@H](C)O)C(C)C)C(=O)O [b-PTHRct-22] (Biotin-DEEASGPERPPALLQEEWETVM-OH)
[1]
  Kd: 11.5 ± 0.4 µM

## PTHRct-8 peptide with Ala at Glu-3
[2]
  Kd: 34.2 µM
  stoichiometry N: 1.15
[3]
  Kd: 35.5 µM
  dH: -8.6 kcal/mol
  stoichiometry N: 0.88

## PTHRct-8 peptide with Ala at Glu-5
[2]
  Kd: 25.5 µM
  dH: -7.6 kcal/mol
  stoichiometry N: 1.21
[3]
  Kd: 26.8 µM
  dH: -10.3 kcal/mol

## PTHRct-8 peptide with Ala at Glu-6
[2]
  Kd: 13.1 µM
  dH: -4.3 kcal/mol
  stoichiometry N: 1.1
[3]
  Kd: 18.1 µM
  stoichiometry N: 1.12

## PTHRct-8 peptide with Ala at Glu-6 and Glu-5
[2]
  Kd: 24.4 µM
  dH: -3.8 kcal/mol
  stoichiometry N: 1.26
[3]
  Kd: 57.8 µM
  dH: -7.2 kcal/mol
  stoichiometry N: 1.26

## QAAWETVM [QAAWETVM]
[4]
  Kd: 24.4 ± 0.6 µM

## QAEWETVM [QAEWETVM]
[4]
  Kd: 13.1 ± 1.7 µM
[5]
  Kd: 18.1 ± 2.4 µM

## QEAWATVM
[4]; ITC, PDZ1, 25 °C, mean ± S.E.M. (n = 3)
  n (stoichiometry): 1.12 ± 0.03
[5]; ITC, PDZ2, 25 °C, mean ± S.E.M. (n = 3)
  n (stoichiometry): 1.04 ± 0.02

## QEAWETVM [QEAWETVM]
[4]
  Kd: 25.5 ± 1.1 µM
[5]
  Kd: 26.8 ± 2.1 µM

## QEEWATVM [QEEWATVM]
[4]
  Kd: 34.2 ± 0.5 µM
[5]
  Kd: 35.5 ± 2 µM

## human Nle^8,18Tyr^34-PTH(1–34)
[6]
  phosphorylation of PTHR Thr591: promoted phosphorylation of Thr591

B1: unlabeled carboxy-terminal PTHR 9-residue peptide (peptide)
peptide: LQEEWETVM
[7]
  Ki: 1.4 ± 0.9 µM

B2: Thr-2/Cys-2 mutant of PTHRct-9 (peptide)
peptide: LQEEWECVM
[7]
  Ki: 11 µM

B3: biotinylated carboxy-terminal 22-amino acid PTHR peptide (peptide)
peptide: Biotin-DEEASGPERPPALLQEEWETVM
[8]
  Kd: 16 µM
[9]
  Kd: 11.5 µM
[10]
  koff: 0.606 s⁻¹
  kon: 14700 M⁻¹ s⁻¹
[11]
  koff: 0.393 s⁻¹
  kon: 57000 M⁻¹ s⁻¹
[12]
  Ki: 7 µM

B4: FITC-labeled carboxy-terminal PTHR 9-residue peptide (peptide)
peptide: {FITC}-LQEEWETVM
[13]
  Kd: 4.7 µM
[14]
  Kd: 2.4 µM
[15]
  Kd: 0.4 µM
[16]
  Kd: 0.4 µM
[17]
  Kd: 1 µM
[18]
  Kd: 0.6 µM
[19]
  Kd: 1 µM
[20]
  Kd: 0.6 µM

B5: phosphorylated Thr-2-PTHRct-9 (peptide)
peptide: LQEEWE[pT]VM
[7]
  Ki: 121 µM

B6: wild-type PTHRct-8 peptide (peptide)
peptide: QEEWETVM
[21]
  Kd: 11.7 µM
  dH: -10.6 kcal/mol
  stoichiometry N: 1.11
[22]
  Kd: 9.7 µM
  dH: -21.6 kcal/mol
  stoichiometry N: 1.13
